# T1: mutant BH3 peptide in which Thr119 was substituted to alanine (T119A)
# T1 chain: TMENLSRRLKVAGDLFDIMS
# T2: peptide corresponding to Beclin's BH3 domain (aa 108-127)
# T2 chain: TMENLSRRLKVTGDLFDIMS
# B1: Flag-tagged DAPk (protein)
# chain: MTVFRQENVDDYYDTGEELGSGQFAVVKKCREKSTGLQYAAKFIKKRRTKSSRRGVSREDIEREVSILKEIQHPNVITLHEVYENKTDVILILELVAGGELFDFLAEKESLTEEEATEFLKQILNGVYYLHSLQIAHFDLKPENIMLLDRNVPKPRIKIIDFGLAHKIDFGNEFKNIFGTPEFVAPEIVNYEPLGLEADMWSIGVITYILLSGASPFLGDTKQETLANVSAVNYEFEDEYFSNTSALAKDFIRRLLVKDPKKRMTIQDSLQHPWIKPKDTQQALSRKASAVNMEKFKKFAARKKWKQSVRLISLCQRLSRSFLSRSNMSVARSDDTLDEEDSFVMKAIIHAINDDNVPGLQHLLGSLSNYDVNQPNKHGTPPLLIAAGCGNIQILQLLIKRGSRIDVQDKGGSNAVYWAARHGHVDTLKFLSENKCPLDVKDKSGEMALHVAARYGHADVAQLLCSFGSNPNIQDKEEETPLHCAAWHGYYSVAKALCEAGCNVNIKNREGETPLLTASARGYHDIVECLAEHGADLNACDKDGHIALHLAVRRCQMEVIKTLLSQGCFVDYQDRHGNTPLHVACKDGNMPIVVALCEANCNLDISNKYGRTPLHLAANNGILDVVRYLCLMGASVEALTTDGKTAEDLARSEQHEHVAGLLARLRKDTHRGLFIQQLRPTQNLQPRIKLKLFGHSGSGKTTLVESLKCGLLRSFFRRRRPRLSSTNSSRFPPSPLASKPTVSVSINNLYPGCENVSVRSRSMMFEPGLTKGMLEVFVAPTHHPHCSADDQSTKAIDIQNAYLNGVGDFSVWEFSGNPVYFCCYDYFAANDPTSIHVVVFSLEEPYEIQLNQVIFWLSFLKSLVPVEEPIAFGGKLKNPLQVVLVATHADIMNVPRPAGGEFGYDKDTSLLKEIRNRFGNDLHISNKLFVLDAGASGSKDMKVLRNHLQEIRSQIVSVCPPMTHLCEKIISTLPSWRKLNGPNQLMSLQQFVYDVQDQLNPLASEEDLRRIAQQLHSTGEINIMQSETVQDVLLLDPRWLCTNVLGKLLSVETPRALHHYRGRYTVEDIQRLVPDSDVEELLQILDAMDICARDLSSGTMVDVPALIKTDNLHRSWADEEDEVMVYGGVRIVPVEHLTPFPCGIFHKVQVNLCRWIHQQSTEGDADIRLWVNGCKLANRGAELLVLLVNHGQGIEVQVRGLETEKIKCCLLLDSVCSTIENVMATTLPGLLTVKHYLSPQQLREHHEPVMIYQPRDFFRAQTLKETSLTNTMGGYKESFSSIMCFGCHDVYSQASLGMDIHASDLNLLTRRKLSRLLDPPDPLGKDWCLLAMNLGLPDLVAKYNTSNGAPKDFLPSPLHALLREWTTYPESTVGTLMSKLRELGRRDAADFLLKASSVFKINLDGNGQEAYASSCNSGTSYNSISSVVSR
# B2: DAPk's catalytic domain (DK1) (protein)
# chain: MTVFRQENVDDYYDTGEELGSGQFAVVKKCREKSTGLQYAAKFIKKRRTKSSRRGVSREDIEREVSILKEIQHPNVITLHEVYENKTDVILILELVAGGELFDFLAEKESLTEEEATEFLKQILNGVYYLHSLQIAHFDLKPENIMLLDRNVPKPRIKIIDFGLAHKIDFGNEFKNIFGTPEFVAPEIVNYEPLGLEADMWSIGVITYILLSGASPFLGDTKQETLANVSAVNYEFEDEYFSNTSALAKDFIRRLLVKDPKKRMTIQDSLQHPWIKPKDTQQALS
# Experiments:
# [1] = target: T1, mutant BH3 peptide in which Thr119 was …
# [2] = target: T2, peptide corresponding to Beclin's BH3 …
# GST-Beclin-1, sequence (chain, as listed by the source): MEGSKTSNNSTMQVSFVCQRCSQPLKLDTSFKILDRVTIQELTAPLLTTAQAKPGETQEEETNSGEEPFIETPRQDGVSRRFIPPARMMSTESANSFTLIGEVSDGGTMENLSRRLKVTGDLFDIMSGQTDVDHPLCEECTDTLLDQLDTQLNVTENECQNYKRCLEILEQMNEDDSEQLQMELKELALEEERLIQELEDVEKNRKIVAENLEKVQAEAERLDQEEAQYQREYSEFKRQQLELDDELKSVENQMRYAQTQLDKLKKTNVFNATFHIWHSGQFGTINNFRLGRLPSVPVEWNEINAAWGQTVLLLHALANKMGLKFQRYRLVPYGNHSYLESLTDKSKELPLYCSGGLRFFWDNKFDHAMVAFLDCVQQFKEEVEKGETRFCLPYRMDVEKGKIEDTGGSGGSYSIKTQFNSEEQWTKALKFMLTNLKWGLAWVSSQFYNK
# Flag-tagged Beclin-1, sequence (chain, as listed by the source): as above
Protein,"in vitro kinase assay, phosphorylation ([γ-33P]ATP, autoradiogram) (Flag-tagged Beclin-1)","in vitro kinase assay, phosphorylation ([γ-33P]ATP, autoradiogram) (GST-Beclin-1)","peptide phosphorylation, filter assay [1]","peptide phosphorylation, filter assay (total counts against substrate concentration) [2]"
B1,"The phosphorylation by Flag-tagged (60 ng) DAPk was also observed when Flag-tagged Beclin-1 (250 ng), immunoprecipitated from HEK293T cells, was used as a substrate","GST-Beclin-1, but not GST alone, was phosphorylated by DAPk",,
B2,,,Changing Thr119 to alanine strongly inhibited the extent of peptide phosphorylation,DAPk phosphorylates Beclin's BH3 peptide in a dose-dependent manner

# Source: patent US20110301093
